In article doi:10.1101/2023.04.21.537819, “DNA damage-induced interaction between a lineage addiction oncogenic transcription factor and the MRN complex shapes a tissue-specific DNA Damage Response and cancer predisposition” (bioRxiv, 2023):

Target: T1, mCherry-LacR-MITF (human, UniProt O75030-9 1-419)
T1 construct: MITF, human; In the self-association test the second copy was MITF-GFP (pEGFP-C1-MITF, Ngeow et al. 2018) in place of mCherry-LacR; also called LacR-mCherry-MITF; MITF WT; source: U2OS-LacO#13 cells, transfected, in cells; not shown: mCherry-LacR, N-terminal, kept
T1 sequence (looked up): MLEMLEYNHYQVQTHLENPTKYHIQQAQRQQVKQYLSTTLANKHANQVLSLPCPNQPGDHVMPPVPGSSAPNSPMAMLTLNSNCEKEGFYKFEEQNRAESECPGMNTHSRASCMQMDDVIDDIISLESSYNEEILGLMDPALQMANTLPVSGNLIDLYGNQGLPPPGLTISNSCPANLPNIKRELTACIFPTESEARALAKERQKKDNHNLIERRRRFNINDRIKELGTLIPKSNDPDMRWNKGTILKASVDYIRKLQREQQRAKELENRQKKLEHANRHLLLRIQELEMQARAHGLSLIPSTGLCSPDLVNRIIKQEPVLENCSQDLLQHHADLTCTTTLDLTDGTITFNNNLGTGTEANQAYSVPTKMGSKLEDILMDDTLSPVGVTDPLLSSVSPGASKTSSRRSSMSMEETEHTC
Assay: LacR/LacO nuclear tethering assay; U2OS-LacO#13 cells transfected 24 h with an mCherry-LacR bait (tethered at the LacO array) and a GFP-tagged prey; fixed, confocal microscopy; ratio of GFP fluorescence inside the mCherry dot to the rest of the nucleus
Conditions: partners not purified

median enrichment of GFP at the mCherry dot over the rest of the nucleus: 7 fold
B1: NBS1-GFP (natural protein, UniProt O60934 1-754, looked up)
chain: MWKLLPAAGPAGGEPYRLLTGVEYVVGRKNCAILIENDQSISRNHAVLTANFSVTNLSQTDEIPVLTLKDNSKYGTFVNEEKMQNGFSRTLKSGDGITFGVFGSKFRIEYEPLVACSSCLDVSGKTALNQAILQLGGFTVNNWTEECTHLVMVSVKVTIKTICALICGRPIVKPEYFTEFLKAVESKKQPPQIESFYPPLDEPSIGSKNVDLSGRQERKQIFKGKTFIFLNAKQHKKLSSAVVFGGGEARLITEENEEEHNFFLAPGTCVVDTGITNSQTLIPDCQKKWIQSIMDMLQRQGLRPIPEAEIGLAVIFMTTKNYCDPQGHPSTGLKTTTPGPSLSQGVSVDEKLMPSAPVNTTTYVADTESEQADTWDLSERPKEIKVSKMEQKFRMLSQDAPTVKESCKTSSNNNSMVSNTLAKMRIPNYQLSPTKLPSINKSKDRASQQQQTNSIRNYFQPSTKKRERDEENQEMSSCKSARIETSCSLLEQTQPATPSLWKNKEQHLSENEPVDTNSDNNLFTDTDLKSIVKNSASKSHAAEKLRSNKKREMDDVAIEDEVLEQLFKDTKPELEIDVKVQKQEEDVNVRKRPRMDIETNDTFSDEAVPESSKISQENEIGKKRELKEDSLWSAKEISNNDKLQDDSEMLPKKLLLTEFRSLVIKNSTSRNPSGINDDYGQLKNFKKFKKVTYPGAGKLPHIIGGSDLIAHHARKNTELEEWLRQEMEVQNQHAKEESLADDLFRYNPYLKRRR
notes: NBS1 (nibrin), component of the MRN complex; plasmid pcDNA3.1(+)-C-eGFP-NBS1 from GenScript; also called GFP-NBS1; pcDNA3.1(+)-C-eGFP-NBS1; source: U2OS-LacO#13 cells, transfected, in cells; not shown: eGFP, C-terminal, kept
